Our source for the EC50 values is patent publication US20240218057A1 (ROCKEFELLER UNIVERSITY, published 2024).

The assay has as its target T1, SARS-COV-2 RBD (SARS-COV-2, UniProt P0DTC2 319-539).
T1 construct: also called WT RBD
Description: ELISA, RBD coated on plate. Background: In an ELISA, binding on a coated surface is turned into a signal by an enzyme label.

B1: C996 (antibody, V domains shown)
VH: EVQLVESGGGLVQPGGSLRLSCVASGFTSTNYDMHWVRQAPGRGLQWVSSIGTAGDTYYPGSVRGRFTISRENAKNSLDLQMNSLRVGDTAVYYCARGQRGYYDRSGYYWGWRAFDIWGQGTMVTVSS
VL: SYELTQPPSVSVAPGQTARITCGGNNIGNKSVYWYQQKPGQAPVLVVYDDSGRPSGIPERFSGSNSANTATLTISRVEAGDEADYYCQVWDNNSDQFGGGTKLTVL
Turning to B1, a half-maximal effect (EC50) was put at 3.07 ng/mL.

B2: C1003 (antibody, V domains shown)
VH: QVQLVESGGGVVQPGRSLRLSCAASGFAFSSYGMNWVRQAPGKGLEWVTTVSSDGNVNYYIDSVKGRFTISRDNSKNTLYLQMNSLRGDDTAVYYCAKGPRFGWSYRGGSGFDIWGQGTMVTVSS
VL: DIQMTQSPSSLSASVGDRVTITCQASQDISNYLNWYQQKPGKAPKLLIYDASNLETGVPSRFSGSGSGTDFTFTITSLQPEDIATYYCQQYDNLPITFGQGTRLEIK
In turn, B2 came in with an EC50 of 1.82 ng/mL.

B3: C994 (antibody, V domains shown)
VH: QVQLQESGPGLVKPSGTLSLTCAVSGVSISNTNWWNWVRQPPGKGLEWIGEIYHTGSARYNPSLRSRVTISVDKSKNQFSLRLNSATAADTAIYYCARAQTPEFGELLYWGQGALVTVSS
VL: DIQMTQSPSSLSASVGDRVTITCRASQSITDHLNWYQQKPGKAPKLLIYAASSLQTGVPSRFSGSGSETDFTLTISTLQPEDFATYYCQQSYGPPTYSFGQGTKLEIK
On to B3, for which the midpoint of the response, the EC50, lay at 2.09 ng/mL.

B4: C990 (antibody, V domains shown)
VH: EVQLVESGGGLVRPGGSLRLSCAASGFTVGSNFMSWVRQAPGKGLEWVSLIYSGGGTHYAESVKGRFTISRDKSKNTLYLQMNSLRAEDTAVYYCANQGYYYYMDVWGKGTTVTVS
VL: QSALTQPASVSGSPGQSITISCTGTSSDVGAYNYVSWHQHHPGKAPKLIIYDVSNRPSGVSNRFSGSKSGNTASLTISGLQAEDEADYYCTSYTNTTTPWVFGGGTKLTVL
Consider B4, for which the EC50 amounted to 1.85 ng/mL.

B5: C1006 (antibody, V domains shown)
VH: QVQLVQSGAEVRKPGSSVKVSCKASGGPFDQYTFSWVRQAPGQGLEWMARITPVVDLTNYAQKFQGRITIITDKSTSTAYMELSSLRSEDTAIYYCATPLNDYYASGNLGLWGQGTLVTVSS
VL: DIQMTQSPSSLSASIGDRVTITCRASQGISYYLAWFQQKPGEAPRSLIYDASSLQSGVPSKFSGSGSGTDFTLTISSLQPEDSATYYCQQYNSYPLTFGGGTKVEIK
Regarding B5, the half-maximal effective concentration (EC50) was 2.04 ng/mL.

B6: C1007 (antibody, V domains shown)
VH: QVQLVQSGSEMKKPGSSVKVSCKAAGGTLNTHTFSWVRQAPGQGLEWMGRITPTVDLTNYAQKFQGRITITADTSTNTAYLELRRLRSEDTAIYYCATPLNDYYASGNLGLWGQGTLVTVSS
VL: DIQMTQSPSSLSASIGDTVTITCRASQGISYYLAWFQRKPGKAPKSLIYDASSLQSGVPSKFSGSGSGTDFTLTISSLQPEDSATYYCQQYSTYPLTFGGGTKVEIK
As to B6, it took 3.22 ng/mL to reach a half-maximal effect (EC50).

B7: C984 (antibody, V domains shown)
VH: QVQLVQSGTEVKKPGDSVQVSCKTSGYSFTGYYIHWVRQAPGQGLEWMGRINPNSGGTNYAQKFQGRVIMTRDTSITTAFMELTRLRYDDTAVYFCAREPIEGVIGGMIVNYYYMDVWGRGTTVTVSS
VL: QSALTQPASVSGSPGQSITISCTGTSSDVGGYYYVSWYQQHPGKAPKLMIYDVSSRPSGVSNRFSGSKSGNTASLTISGLQAEDEADYYCSSYTSSNTLVVFGGGTKLTVL
On to B7, for which a half-maximal effect (EC50) was put at 2.76 ng/mL.

B8: C985 (antibody, V domains shown)
VH: QVQLVQSGAEVKKPGASVKVSCKASGYIFTGYYMHWVRQAPGQGLEWMGRINPNSGGSRYAEKFQGRVTMTRDTSIITAFMELRGLKSDDTAVYYCAREPIEAVPAGIIVNYYYMDVWGNGTTVTVSS
VL: QSALTQPASVSGSPGQSITISCTGTSSDVGGYNYVSWYQQHPGKAPKLMIYDVTSRPSGVSDRFSGSKSGTTASLTISGLQAEDEADYYCSSFTSAFTLVVFGGGTKLTVL
Take B8: a half-maximal effect (EC50) was put at 3.67 ng/mL.

B9: C986 (antibody, V domains shown)
VH: EVQLVQSGAEVKKPGETLKISCKGSGDSFSNYWIGWVRQSPGKGLEWMAIVYPGDSDARYSPSFQGQVTISADKSVTTAYLKWSSLKASDTAIYYCVRGLPVDWYFDLWGRGTLVTVSS
VL: QSVLTQPPSVSGAPEQRVTISCTGSSSNIGAGHDVHWYQQLPGTAPKLLIYNNNNRPSGVPDRFSGSKSGASASLAISGLQAEDEAEYYCQSYDKSLSVLYVLGTGTKVTV
In turn, B9 registered an EC50 of 3.36 ng/mL.

B10: C1002 (antibody, V domains shown)
VH: EVQLVESGGGLVQPGGSLRLSCAASEFIVSSNYMTWVRQAPGKGLEWVSIMYPGGSTFYADSVKGRFTISRDNSKNTLYLQINRLRAEDTAVYYCARDIAGRLDYWGQGTLVTVSS
VL: DIQMTQSPSSLSASVGDRVTITCQASQDINNYLNWYQQKPGKAPKLLIYDASNLETGVPSRFSGSGSGTDFSFTISSLQPEDIATYYCQQYDNLSRLTFGGGTKVEIK
In turn, B10 showed an EC50 of 0.83 ng/mL. This EC50 is about 4-fold lower than that of the molecule before.

B11: C998 (antibody, V domains shown)
VH: QVQLVQSGAEVKKPGASVKVSCKTSGYTFISYYIHWVRQAPGQGLEWMGIINPDGDNTNYAQKFQGRVTMTRDTSTSTVYMELSSLRFEDTAVYYCARGGAIPALRTAFDIWGQGTMVTVSS
VL: DIQMTQSPSTLSASVGDRVTITCRASQSISNWLAWYQQKPGKAPKLLIYKASSLESGVPSRFSGSGSGTEFTLTISSLQPDDFATYYCQEYNSYYFGQGTKLEIK
B11: the response was half-maximal at 2.51 ng/mL (EC50).

B12: C999 (antibody, V domains shown)
VH: QVQLVQSGAEVRRPGASVKVSCKASGYTLTHYYIHWVRQAPGQGLEWVGIINPDGDNTNYAQKFQGRVTMTRDTSTSTVYMELSSLRSEDTAIFYCARGGAIPALRSAFDIWGQGTMVTVSS
VL: DIQMTQSPSTLSASVGDRVTITCRASQSINNWLAWYQQKPGKAPKLLIYKASTLESGVPSRFSGSGSGTEFTLTISSLQPDDFATYYCQQYNSYFFGQGTKLEIK
In the case of B12, the EC50 amounted to 2.68 ng/mL.

B13: C1001 (antibody, V domains shown)
VH: QVQLQESGPGLVKPSQTLSLTCTVSGGSISSGDYYWTWIRQPPGKGLEWIGYIFYSGITYYSPSLKSRLTMSIDTSKSQFSLNLSSVTAADTAVYYCARWKRLLQSLHFDYWGQGILVTVSS
VL: QSALTQPRSVSGSPGQSVTISCTGTSSDVGSYDYVSWYQQHPGKAPKVMIYGVDERPSGVPHRFSGSKSGNTASLTISGLQADDEADYFCCFYAGSYTLLFGGGTKVTVL
Molecule B13 gave an EC50 of 3.23 ng/mL.

B14: C993 (antibody, V domains shown)
VH: EVQLLESGGGLVQPGGSLRLSCAASGFPFSIYAMSWVRQAPGKGLEWVSGMRGTTGTTYYADSVKGRFAISRDNSKNMLHLQMNSLRAEDTAVYYCAKSDHGDYVIGAFDIWGQGTMVTVSS
VL: QSALTQPPSASGSPGQSVTISCTGTSGDVGGYNYVSWYQQHPGKAPKLMIYEVSKRPSGVPDRFSGSKSGNTASLTVSGLQAEDEADYYCNSYAGSNNWVFGGGTKLTVL
With B14, the concentration giving a half-maximal response (EC50) was 2.29 ng/mL.

B15: C1008 (antibody, V domains shown)
VH: EVQLVESGGGLIQPGGSLRLSCAASGFTVSSNYMSWVRQAPGKGLEWVSVIYSGGSTYYADSVKGRFTISRDNSKNTLYLQMNSLRAEDTAVYYCARVVGYDFWSGYDGGYFDYWGQGTLVTVSS
VL: QSALTQPASVSGSPGQSITISCTGTSSDVGSYNLVSWYQQHPGKAPKLMIYEVSKRPSGVSNRFSGSKSGNTASLTISGLQAEDEADYYCCSYAGSSTWVFGGGTKLTVL
Molecule B15 yielded an EC50 of 17.2 ng/mL. Compared with the last molecule, the EC50 is about 7.5-fold higher.

B16: C1009 (antibody, V domains shown)
VH: EVQLVESGGGLLQPGGSLRLSCAASGFSVSSNYMTWVRQAPGKGLEWVAAIYSGDSTYYVDSVKGRFIISRDNSKNTVYLHLSSLRAEDTAVYYCARLVGYDFRSGSDGGYFDYWGHGTLVTVSS
VL: QSALTQPASVSGSPGQSITISCTGTSSDIGNYNLVSWYQQHPGKAPKLMIYDVSKRPSGVSNRFSGSKSGNTASLTISGLQAEDETDYYCCSYAGSSTWVFGGGTKLTVL
For the molecule B16, the EC50 was found to be 1.34 ng/mL. Compared with the last molecule, the EC50 is about 13-fold lower.

B17: C995 (antibody, V domains shown)
VH: EVQLVESGGGLIQPGRSLRLSCTASGFSVGDYAMSWFRQAPGKGLEWVGFLRNQHYGGTAEYAASVKGRFSISTDASKNIVYLQMDSLKTEDTAVYYCARNDRYIVIVPAEMLYWGQGTLVTVSS
VL: EIVMTQSPATLSVSPGERATLSCRATESVYSNLAWYQQKPGQAPRLLMYDASTRAPGIPARFSGSGSGTEFTLTISSLQSEDFATYYCQQYSNWPPITFGQGTRLEIK
For the molecule B17, the EC50 stood at 3.79 ng/mL. Compared with the last molecule, the EC50 is about 2.8-fold higher.

B18: C992 (antibody, V domains shown)
VH: QVQLQESGPGLVKPSQTLSLTCTVSGGSISNGGYFWTWIRQHPVKGLEWIGYIYYSGSPHYNPSLKSRLSISLDTFKNQFSLNLSSVTAADTAVYYCARGDTFGRGYYFDFWGQGTLVTVSS
VL: SYELTQPPSVSVAPGQTARITCGGNNIGTNSMHWYQQKPGQAPVLVVFDDSDRPSGIPERFSGSNSGNTATLTISRVEAGDEADYHCQVWDRSSDRPWVFGGGTKLTVL
In turn, B18 displayed an EC50 of 3.24 ng/mL.

B19: C997 (antibody, V domains shown)
VH: EVQLLESGGGLVQPGGSLRLSCAASGFTFSKDAMSWVRQAPGKGLEWVSTVTGSGTNTYYADSVKGRFTISRDNSNNTLYLQMNSLRAEDTAVYYCANHPLGAAEGYYYYYMDVWGKGTTVTVSS
VL: EIVLTQSPGTLSLSPGERGTLSCRASQRVPSSQLAWYQQKSGQAPRLLIYGASSRASGIPDRFSGSGSGTDFTLNISRLEPEDFAVYYCQQYGSLRALTFGGGTKVEIK
In turn, B19 yielded an EC50 of 3.49 ng/mL.

B20: C1000 (antibody, V domains shown)
VH: QVQLQESGPGLVKPSQTLSLSCTVSGGSISSDDYYWSWIRQPPGKGLEWIGYIYYSGSTYYNSSLKSRVSISVDTSKNQFSLKLSSVTAADTAVYYCARWKRWLQFLYFDYWGQGTLVTVSS
VL: QSALTQPRSVSGSPGQSVTISCTGTSSDVGGYSFVSWYQQHPGKAPKVLIYDVDKRPSGVPDRLSGSKSGNTASLTISGLQAEDEADYYCCSYAGSYTLIFGGGTKLTVL
As for B20, the EC50 worked out at 3.2 ng/mL.

B21: C987 (antibody, V domains shown)
VH: QVQLQESGPGLVKPSETLSLTCNVSGDIINKYYWSWIRQSPGKGLEWIGYIYYSGTTYYNPSLKSRVTMSVGTSKQQFSLRLTSVTAADTAVYYCARMLSTEWSFNWFDPWGPGTLVTVSS
VL: SYELTQPPSVSVSPGQAASITCSGDKLGDKFACWYQQKPGQSPVLVIYQNDKRPTGIPERFSGSNSGNTATLTISGTQAMDEADYFCQAWDSTSASVFGTGTKVTVL
Regarding B21, a half-maximal effect (EC50) was put at 3.11 ng/mL.

Broadly, the EC50 is the concentration needed to bring the measured effect to its halfway point.
